The assay has as its target recombinant soluble tissue factor sTF (1–219) (UniProt P13726).
Sequence of UniProt P13726 (P13726 33-251): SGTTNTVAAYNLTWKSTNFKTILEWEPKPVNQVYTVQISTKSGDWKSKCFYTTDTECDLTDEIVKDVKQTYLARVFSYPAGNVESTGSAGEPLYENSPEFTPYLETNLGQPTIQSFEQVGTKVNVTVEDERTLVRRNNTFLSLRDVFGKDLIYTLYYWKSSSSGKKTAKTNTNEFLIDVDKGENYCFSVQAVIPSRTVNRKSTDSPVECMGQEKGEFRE

For the substance “coagulation factor VIIa (FVIIa) (enzyme)”, the activation of FX in solution, kcat/KM amounted to 663 M⁻¹ s⁻¹.

(Values after paper PMC5703266.)
